Test results reported in patent publication US20240116985A1 (published 2024).
Starred links: 1 amine or outer side, 2 acyl side, 3 side chain; linkers in the order of their positions; H or OH if unused. Positions of bridges follow the written chain, without caps; N, C: chain ends. Non-standard residues stand in square brackets, D forms with d. Primed or numbered codes have the meaning given here. B5(15) = 2-amino-2-(pent-4-en-1-yl)hept-6-enoic acid (2,2-bis(4-pentenyl)glycine), stitching residue bearing two staples, C=CCCCC(CCCC=C)(N[*:1])C(=O)[*:2]; B5(17) = 2,2-bis(4-pentenyl)glycine = 2-amino-2-(pent-4-en-1-yl)hept-6-enoic acid, stitching residue, C=CCCCC(CCCC=C)(N[*:1])C(=O)[*:2]; B5(23) = 2-amino-2-(pent-4-en-1-yl)hept-6-enoic acid (2,2-bis(4-pentenyl)glycine), stitching residue, C=CCCCC(CCCC=C)(N[*:1])C(=O)[*:2]; B5(4) = 2,2-bis(4-pentenyl)glycine = 2-amino-2-(pent-4-en-1-yl)hept-6-enoic acid (stitching residue), C=CCCCC(CCCC=C)(N[*:1])C(=O)[*:2]; Phe(3,4-F2) = N[C@@H](Cc1ccc(F)c(F)c1)C(=O)O; Phe(3-F) = N[C@@H](Cc1cccc(F)c1)C(=O)O; Phe(4-F) = N[C@@H](Cc1ccc(F)cc1)C(=O)O; Bta = N[C@@H](Cc1csc2ccccc12)C(=O)O; αAllylPro = C=CC[C@@]1(C(=O)O)CCCN1; 3Pal = N[C@@H](Cc1cccnc1)C(=O)O; S8 = C=CCCCCCC[C@](C)(N)C(=O)O; hSer = N[C@@H](CCO)C(=O)O

T1: B-cat-Halo (beta-catenin HaloTag NanoBRET construct expressed in HEK293 cells) (UniProt P35222 1-781)
T1 sequence (looked up): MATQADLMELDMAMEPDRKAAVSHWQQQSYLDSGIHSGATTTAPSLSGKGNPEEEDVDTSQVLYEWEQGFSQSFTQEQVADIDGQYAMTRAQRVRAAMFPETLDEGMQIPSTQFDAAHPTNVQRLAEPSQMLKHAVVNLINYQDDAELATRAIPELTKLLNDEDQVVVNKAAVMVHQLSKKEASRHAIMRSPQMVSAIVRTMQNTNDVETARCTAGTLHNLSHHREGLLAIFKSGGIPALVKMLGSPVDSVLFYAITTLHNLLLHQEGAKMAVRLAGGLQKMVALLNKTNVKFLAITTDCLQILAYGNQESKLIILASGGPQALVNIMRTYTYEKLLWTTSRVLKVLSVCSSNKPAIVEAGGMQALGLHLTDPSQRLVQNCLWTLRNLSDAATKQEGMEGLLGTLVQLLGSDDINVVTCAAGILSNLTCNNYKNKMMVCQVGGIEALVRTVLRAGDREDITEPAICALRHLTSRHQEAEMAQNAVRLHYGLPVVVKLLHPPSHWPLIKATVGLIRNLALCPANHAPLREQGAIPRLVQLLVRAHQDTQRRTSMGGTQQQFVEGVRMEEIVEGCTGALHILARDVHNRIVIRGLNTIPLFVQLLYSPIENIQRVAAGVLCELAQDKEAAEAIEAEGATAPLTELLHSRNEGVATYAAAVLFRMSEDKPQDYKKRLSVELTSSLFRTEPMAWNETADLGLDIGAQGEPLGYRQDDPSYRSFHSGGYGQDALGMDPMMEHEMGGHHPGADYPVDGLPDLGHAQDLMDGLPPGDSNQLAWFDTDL

T2: full-length beta-Catenin (Uniprot ID P35222) (Homo sapiens (Human), UniProt P35222 2-781)
T2 construct: full-length; also called bCat; B-Catenin
T2 sequence: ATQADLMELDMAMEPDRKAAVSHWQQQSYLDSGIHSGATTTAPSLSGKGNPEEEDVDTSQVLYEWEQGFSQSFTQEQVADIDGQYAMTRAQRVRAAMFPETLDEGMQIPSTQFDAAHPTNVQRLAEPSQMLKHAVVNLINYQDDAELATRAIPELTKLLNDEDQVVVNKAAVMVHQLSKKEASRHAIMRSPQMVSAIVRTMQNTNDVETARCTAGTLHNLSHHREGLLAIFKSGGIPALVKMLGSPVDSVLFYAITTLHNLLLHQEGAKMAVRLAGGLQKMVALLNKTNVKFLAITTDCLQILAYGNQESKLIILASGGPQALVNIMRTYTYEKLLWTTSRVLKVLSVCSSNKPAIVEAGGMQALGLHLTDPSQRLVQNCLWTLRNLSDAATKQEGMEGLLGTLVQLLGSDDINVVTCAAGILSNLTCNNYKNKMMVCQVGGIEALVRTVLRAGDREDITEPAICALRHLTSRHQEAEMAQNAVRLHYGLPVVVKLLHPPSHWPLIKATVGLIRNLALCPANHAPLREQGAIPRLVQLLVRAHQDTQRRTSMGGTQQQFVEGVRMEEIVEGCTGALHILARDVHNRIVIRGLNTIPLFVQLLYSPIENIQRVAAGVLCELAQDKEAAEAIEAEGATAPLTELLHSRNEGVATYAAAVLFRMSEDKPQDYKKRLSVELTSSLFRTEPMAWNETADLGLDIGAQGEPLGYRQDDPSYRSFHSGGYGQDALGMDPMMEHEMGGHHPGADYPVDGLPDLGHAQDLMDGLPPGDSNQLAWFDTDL

T3: full-length beta-Catenin (Uniprot ID P35222) (Homo sapiens (Human), UniProt P35222 1-781)
T3 construct: The assay protocols call it full-length; also called B-Catenin; bCat
T3 sequence: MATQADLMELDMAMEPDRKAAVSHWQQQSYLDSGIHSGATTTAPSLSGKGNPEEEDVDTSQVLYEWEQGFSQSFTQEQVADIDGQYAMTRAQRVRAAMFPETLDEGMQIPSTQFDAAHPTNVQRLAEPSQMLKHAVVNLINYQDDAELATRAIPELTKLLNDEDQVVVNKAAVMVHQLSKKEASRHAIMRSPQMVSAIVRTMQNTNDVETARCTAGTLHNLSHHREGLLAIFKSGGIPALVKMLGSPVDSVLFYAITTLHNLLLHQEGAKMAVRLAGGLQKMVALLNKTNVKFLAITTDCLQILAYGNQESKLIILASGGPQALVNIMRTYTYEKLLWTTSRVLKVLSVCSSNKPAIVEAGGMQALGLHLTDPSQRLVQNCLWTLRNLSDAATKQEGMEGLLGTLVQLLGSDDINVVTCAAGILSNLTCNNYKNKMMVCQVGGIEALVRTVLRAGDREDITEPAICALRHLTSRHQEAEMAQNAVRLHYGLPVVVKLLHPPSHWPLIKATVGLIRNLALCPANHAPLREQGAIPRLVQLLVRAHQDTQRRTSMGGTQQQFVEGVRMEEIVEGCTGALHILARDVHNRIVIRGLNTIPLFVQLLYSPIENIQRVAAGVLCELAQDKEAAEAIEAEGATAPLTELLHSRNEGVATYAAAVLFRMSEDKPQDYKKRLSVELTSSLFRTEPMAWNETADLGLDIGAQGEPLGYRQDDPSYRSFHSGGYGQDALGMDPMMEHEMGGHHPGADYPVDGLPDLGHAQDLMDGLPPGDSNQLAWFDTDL


Tests used:
[1] = target: T1, B-cat-Halo (beta-catenin HaloTag …); assay: cell-based or functional assay
[2] = target: T2, full-length beta-Catenin (Uniprot ID …); assay: fluorescence polarization competition; displaces 5FAM-TCF4(10-53) from full-length beta-catenin
Description: (§1) The plate was incubated protected from light for 60 minutes at 20° C. prior to read. Reads were performed on a CLARIOstar plate reader (BMG Labtech) in duplicate, and data were fitted to a 1:1 binding model with hill slope using an in-house script. All provided concentrations are final concentrations.

[3] = target: T3, full-length beta-Catenin (Uniprot ID …); assay: fluorescence polarization competition; full-length beta-catenin with 5FAM-labelled TCF4 10-53 peptide as competitor
Description: as §1

[4] = target: T3, full-length beta-Catenin (Uniprot ID …); assay: AlphaScreen competition; full-length beta-catenin with biotin-labelled TCF4 10-53 peptide as competitor
Description: as §1, with “Equal volume of the titrated peptide was added to the” for “The”, “and” for “was”, “incubated for 15 minutes at 20° C. Then 4 uL of donor and 4 uL acceptor beads at 10 ug/mL were added to the plate, for a 16 uL reaction pool and” for “incubated”

Row | NanoBRET Abs IC50 [1] | IC50 [2] | EC50 [3] | EC50 [4] | Binder
1 | > 20000 nM | 68 nM | – | – | Ac-[αAllylPro]D[hSer][B5(15)]DEAAF[hSer][S8]F[Bta]Q-NH2 (staple 1-4, 4-11; not fully specified; printed as Ac-PL3-Asp-Hse-B5-Asp-Glu-Ala-Ala-Phe-Hse-S8-Phe-BztA-Gln-NH2, Stapled peptide composition; Same description as I-1548; earlier eluting HPLC peak (staple isomer); also called Ac-PL3-Asp-Hse-B5-Asp-Glu-Ala-Ala-Phe-Hse-S8-Phe-BztA-Gln-NH2) [I-1547]
2 | > 20000 nM | 63 nM | – | – | Ac-[αAllylPro]DK[B5(23)]DEAAF[hSer][S8]F[Bta]Q-NH2 (staple 1-4, 4-11, Stapled peptide composition; also called Ac-PL3-Asp-Lys-B5-Asp-Glu-Ala-Ala-Phe-Hse-S8-Phe-BztA-Gln-NH2) [I-1554]
3 | 19800 nM | 16 nM | – | – | Ac-[αAllylPro]DF[B5(23)]DEAAF[hSer][S8]F[Bta]Q-NH2 (staple 1-4, 4-11, Stapled peptide composition; also called Ac-PL3-Asp-Phe-B5-Asp-Glu-Ala-Ala-Phe-Hse-S8-Phe-BztA-Gln-NH2) [I-1551]
4 | > 20000 nM | 133 nM | – | – | Ac-[αAllylPro]DK[B5(23)]DEAAFL[S8]F[Bta]Q-NH2 (staple 1-4, 4-11, Stapled peptide composition; also called Ac-PL3-Asp-Lys-B5-Asp-Glu-Ala-Ala-Phe-Leu-S8-Phe-BztA-Gln-NH2) [I-1553]
5 | > 20000 nM | 56 nM | – | – | Ac-[αAllylPro]DK[B5(23)]DEAAFQ[S8]F[Bta]Q-NH2 (staple 1-4, 4-11, Stapled peptide composition; also called Ac-PL3-Asp-Lys-B5-Asp-Glu-Ala-Ala-Phe-Gln-S8-Phe-BztA-Gln-NH2) [I-1552]

Continued, binder first:

Row | Binder | NanoBRET Abs IC50 [1] | IC50 [2] | EC50 [3] | EC50 [4]
6 | XDQXDEAAFQXFXQ (not fully specified; N-terminal Ac; PL3 at 1, B5 at 4, S8 at 11 (staples PL3-B5 and B5-S8 by olefin metathesis); BztA at 13; C-terminal NH2, Stapled peptide composition; earlier eluting HPLC peak (staple isomer); also called Ac-PL3-Asp-Gln-B5-Asp-Glu-Ala-Ala-Phe-Gln-S8-Phe-BztA-Gln-NH2) [I-1539] | > 20000 nM | 36 nM | – | –
7 | XDSXDEAAFQXFXQ (not fully specified; N-terminal Ac; PL3 at 1, B5 at 4, S8 at 11 (staples PL3-B5 and B5-S8 by olefin metathesis); Hse at 3; BztA at 13; C-terminal NH2, Stapled peptide composition; later eluting HPLC peak (staple isomer); also called Ac-PL3-Asp-Hse-B5-Asp-Glu-Ala-Ala-Phe-Gln-S8-Phe-BztA-Gln-NH2) [I-1545] | > 20000 nM | 26 nM | – | –
8 | Ac-[αAllylPro]DQ[B5(15)]DEAAFL[S8]F[Bta]Q-NH2 (staple 1-4, 4-11, Stapled peptide composition; also called Ac-PL3-Asp-Gln-B5-Asp-Glu-Ala-Ala-Phe-Leu-S8-Phe-BztA-Gln-NH2) [I-1541] | 34700 nM | 39 nM | – | –
9 | Ac-[αAllylPro]DA[B5(4)]DDAA[Phe(4-F)]V[S8]FWQ-NH2 (staple 1-4, 4-11, Stapled (stitched) peptide; also called Ac-PL3-Asp-Ala-B5-Asp-Asp-Ala-Ala-4FF-Val-S8-Phe-Trp-Gln-NH2) [I-266] | – | – | 5000 nM | 318 nM
10 | XDAXDDAAFVXFWQ (not fully specified; N-terminal Ac; PL3 at 1; B5 at 4; S8 at 11; 34FF at 12; C-terminal NH2; staples PL3(1)-B5(4) and B5(4)-S8(11) by olefin metathesis, Stapled (stitched) peptide; also called Ac-PL3-Asp-Ala-B5-Asp-Asp-Ala-Ala-Phe-Val-S8-34FF-Trp-Gln-NH2) [I-262] | – | – | 5000 nM | 967 nM
11 | Ac-[αAllylPro]DA[B5(17)]D[3Pal]AAFV[S8]FWQ-NH2 (staple 1-4, 4-11, Stapled (stitched) peptide; also called Ac-PL3-Asp-Ala-B5-Asp-3PyrA-Ala-Ala-Phe-Val-S8-Phe-Trp-Gln-NH2) [I-271] | – | – | 5000 nM | 788 nM
12 | Ac-[αAllylPro]DA[B5(4)]DDAAFV[S8][Phe(3-F)]WQ-NH2 (staple 1-4, 4-11, Stapled (stitched) peptide; also called Ac-PL3-Asp-Ala-B5-Asp-Asp-Ala-Ala-Phe-Val-S8-3FF-Trp-Gln-NH2) [I-260] | – | – | 5000 nM | 683 nM
13 | XDAXDDAAFAXFWA (not fully specified; N-terminal Ac; PL3 at 1; B5 at 4; S8 at 11; C-terminal NH2; staples PL3(1)-B5(4) and B5(4)-S8(11) by olefin metathesis, Stapled (stitched) peptide; also called Ac-PL3-Asp-Ala-B5-Asp-Asp-Ala-Ala-Phe-Ala-S8-Phe-Trp-Ala-NH2) [I-286] | – | – | 4480 nM | 450 nM
14 | XDAXDDAAFVXHWQ (not fully specified; N-terminal Ac; PL3 at 1; B5 at 4; S8 at 11; C-terminal NH2; staples PL3(1)-B5(4) and B5(4)-S8(11) by olefin metathesis, Stapled (stitched) peptide; also called Ac-PL3-Asp-Ala-B5-Asp-Asp-Ala-Ala-Phe-Val-S8-His-Trp-Gln-NH2) [I-285] | – | – | 5000 nM | 246 nM
15 | Ac-[αAllylPro]DA[B5(17)]DDAA[Phe(3,4-F2)]V[S8]FWQ-NH2 (staple 1-4, 4-11, Stapled (stitched) peptide; also called Ac-PL3-Asp-Ala-B5-Asp-Asp-Ala-Ala-34FF-Val-S8-Phe-Trp-Gln-NH2) [I-267] | – | – | 5000 nM | 620 nM
